# Test results: paper PMC10235760
# pKd: −log10 of the molar value.
# Molecular target: SARS-CoV-2 receptor binding domain, omicron subvariant BA5 (RBDBA5) (UniProt P0DTC2)
# Experiment: SPR
Substance,ratio to parent,pKd
antibody 10-40 H:G27S,0.79,
antibody 10-40 H:R100bI,3.83,10.16
antibody 10-40 H:R100bI; H:S32H,130,11.69
antibody 10-40 H:R100bI; H:S32H; L:Q53F,,13.30
antibody 10-40 H:R100bL,1.72,9.81
antibody 10-40 H:S98R,0.26,
antibody 10-40 L:D51W,0.5,
antibody 10-40 L:Q53F,1.42,9.73
